Test [1] has as its target Recombinant human GM-CSF (expression source not stated) (human) (UniProt P04141). The experiment in a line: competition ELISA; plate coated with 50 ng/well recombinant GM-CSF; unlabeled antibody titrated together with 50 nM biotinylated Ab2; competition for 1 hr; neutravidin-HRP detection, A450. Background: In an ELISA, binding on a coated surface is turned into a signal by an enzyme label.

Test [2] shares this target. The experiment in a line: competition ELISA; plate coated with 50 ng/well recombinant GM-CSF; unlabeled antibody titrated together with 50 nM biotinylated Ab2; competition for 18 hrs; neutravidin-HRP detection, A450.

Our source for the IC50 values is patent publication US20210322547A1.

As usually defined, the IC50 is the concentration needed to halve the response being measured.

Chain of UniProt P04141 (P04141 18-144 limits assumed): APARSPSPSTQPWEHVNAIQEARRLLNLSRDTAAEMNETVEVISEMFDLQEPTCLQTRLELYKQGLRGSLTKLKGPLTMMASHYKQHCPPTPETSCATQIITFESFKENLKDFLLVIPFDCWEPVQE

Regarding “Ab2, chimeric IgG1k antibody having variable regions from the mouse antibody LMM102”, the results for the concentration for half-maximal inhibition (IC50) in test [1] and in test [2] were 122 nM and 94 nM, respectively.
